T1: FcγRIIa R (human FcγRIIa, allotype R, Arg at position 131), extracellular domain with C-terminal His tag (human, UniProt P12318 34-217)
T1 construct: extracellular domain; expressed in FreeStyle293 cells; analyte in Biacore; also called 2aR; FcgRIIa R
T1 sequence (looked up): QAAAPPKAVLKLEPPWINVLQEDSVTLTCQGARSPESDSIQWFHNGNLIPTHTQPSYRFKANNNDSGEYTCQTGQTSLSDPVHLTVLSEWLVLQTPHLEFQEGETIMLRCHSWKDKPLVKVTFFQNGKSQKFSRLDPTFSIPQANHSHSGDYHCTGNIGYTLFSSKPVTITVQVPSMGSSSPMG

B1: GpH7-A5/GpH7-B3 variant T335_13S/GpL16-k0 (antibody, human IgG1, kappa)
heavy 1: not shown
heavy 2: not shown
light: DIVMTQSPLSLPVTPGEPASISCQASESLVHSNRNTYLHWYLQKPGQSPQLLIYKVSNRFSGVPDRFSGSGSGTDFTLKISRVEAEDVGVYYCSQNTHVPPTFGQGTKVEIERTVAAPSVFIFPPSDEQLKSGTASVVCLLNNFYPREAKVQWKVDNALQSGNSQESVTEQDSKDSTYSLSSTLTLSKADYEKHKVYACEVTHQGLSSPVTKSFNRGEC
notes: heterodimerized, mutation in one H chain only; also called He Ab
B2: GpH7-A5/GpH7-B3 variant K326_12R/GpL16-k0 (antibody, human IgG1, kappa)
heavy 1: not shown
heavy 2: not shown
light: B1 light
notes: as for B1
B3: GpH7-A5/GpH7-B3 variant E333_13S/GpL16-k0 (antibody, human IgG1, kappa)
heavy 1: not shown
heavy 2: not shown
light: B1 light
notes: as for B1
B4: GpH7-A5/GpH7-B3 variant E333_08L/GpL16-k0 (antibody, human IgG1, kappa)
heavy 1: not shown
heavy 2: not shown
light: B1 light
notes: as for B1
B5: GpH7-A5/GpH7-B3 variant S267_09D/GpL16-k0 (antibody, human IgG1, kappa)
heavy 1: not shown
heavy 2: not shown
light: B1 light
notes: as for B1
B6: GpH7-A5/GpH7-B3 variant G236_04F/GpL16-k0 (antibody, human IgG1, kappa)
heavy 1: not shown
heavy 2: not shown
light: B1 light
notes: as for B1
B7: GpH7-A5/GpH7-B3 variant L234_15Y/GpL16-k0 (antibody, human IgG1, kappa)
heavy 1: not shown
heavy 2: not shown
light: B1 light
notes: as for B1
B8: GpH7-A5/GpH7-B3 variant E333_14T/GpL16-k0 (antibody, human IgG1, kappa)
heavy 1: not shown
heavy 2: not shown
light: B1 light
notes: as for B1
B9: GpH7-A5/GpH7-B3 variant T335_15Y/GpL16-k0 (antibody, human IgG1, kappa)
heavy 1: not shown
heavy 2: not shown
light: B1 light
notes: as for B1
B10: GpH7-A5/GpH7-B3 variant G236_14T/GpL16-k0 (antibody, human IgG1, kappa)
heavy 1: not shown
heavy 2: not shown
light: B1 light
notes: as for B1
B11: GpH7-A5/GpH7-B3 variant K334_13S/GpL16-k0 (antibody, human IgG1, kappa)
heavy 1: not shown
heavy 2: not shown
light: B1 light
notes: as for B1
B12: GpH7-A5/GpH7-B3 variant I336_10E/GpL16-k0 (antibody, human IgG1, kappa)
heavy 1: not shown
heavy 2: not shown
light: B1 light
notes: as for B1
B13: GpH7-A5/GpH7-B3 variant S337_07I/GpL16-k0 (antibody, human IgG1, kappa)
heavy 1: not shown
heavy 2: not shown
light: B1 light
notes: as for B1
B14: GpH7-A5/GpH7-B3 variant T335_19Q/GpL16-k0 (antibody, human IgG1, kappa)
heavy 1: not shown
heavy 2: not shown
light: B1 light
notes: as for B1
B15: GpH7-A5/GpH7-B3 variant S239_10E/GpL16-k0 (antibody, human IgG1, kappa)
heavy 1: not shown
heavy 2: not shown
light: B1 light
notes: as for B1
B16: GpH7-A5/GpH7-B3 variant G236_15Y/GpL16-k0 (antibody, human IgG1, kappa)
heavy 1: not shown
heavy 2: not shown
light: B1 light
notes: as for B1
B17: GpH7-A5/GpH7-B3 variant Y296_18N/GpL16-k0 (antibody, human IgG1, kappa)
heavy 1: not shown
heavy 2: not shown
light: B1 light
notes: as for B1
B18: GpH7-A5/GpH7-B3 variant S239_08L/GpL16-k0 (antibody, human IgG1, kappa)
heavy 1: not shown
heavy 2: not shown
light: B1 light
notes: as for B1
B19: GpH7-A5/GpH7-B3 variant V266_07I/GpL16-k0 (antibody, human IgG1, kappa)
heavy 1: not shown
heavy 2: not shown
light: B1 light
notes: as for B1
B20: GpH7-A5/GpH7-B3 variant I336_03V/GpL16-k0 (antibody, human IgG1, kappa)
heavy 1: not shown
heavy 2: not shown
light: B1 light
notes: as for B1
B21: GpH7-A5/GpH7-B3 variant A327_09D/GpL16-k0 (antibody, human IgG1, kappa)
heavy 1: not shown
heavy 2: not shown
light: B1 light
notes: as for B1
B22: GpH7-A5/GpH7-B3 variant L234_20W/GpL16-k0 (antibody, human IgG1, kappa)
heavy 1: not shown
heavy 2: not shown
light: B1 light
notes: as for B1
B23: GpH7-A5/GpH7-B3 variant K326_07I/GpL16-k0 (antibody, human IgG1, kappa)
heavy 1: not shown
heavy 2: not shown
light: B1 light
notes: as for B1
B24: GpH7-A5/GpH7-B3 variant K326_01G/GpL16-k0 (antibody, human IgG1, kappa)
heavy 1: not shown
heavy 2: not shown
light: B1 light
notes: as for B1
B25: GpH7-A5/GpH7-B3 variant T335_16H/GpL16-k0 (antibody, human IgG1, kappa)
heavy 1: not shown
heavy 2: not shown
light: B1 light
notes: as for B1
B26: GpH7-A5/GpH7-B3 variant E333_04F/GpL16-k0 (antibody, human IgG1, kappa)
heavy 1: not shown
heavy 2: not shown
light: B1 light
notes: as for B1
B27: GpH7-A5/GpH7-B3 variant S267_10E/GpL16-k0 (antibody, human IgG1, kappa)
heavy 1: not shown
heavy 2: not shown
light: B1 light
notes: as for B1
B28: GpH7-A5/GpH7-B3 variant L234_04F/GpL16-k0 (antibody, human IgG1, kappa)
heavy 1: not shown
heavy 2: not shown
light: B1 light
notes: as for B1
B29: GpH7-A5/GpH7-B3 variant A330_19Q/GpL16-k0 (antibody, human IgG1, kappa)
heavy 1: not shown
heavy 2: not shown
light: B1 light
notes: as for B1
B30: GpH7-A5/GpH7-B3 variant K334_19Q/GpL16-k0 (antibody, human IgG1, kappa)
heavy 1: not shown
heavy 2: not shown
light: B1 light
notes: as for B1
B31: GpH7-A5/GpH7-B3 variant I336_18N/GpL16-k0 (antibody, human IgG1, kappa)
heavy 1: not shown
heavy 2: not shown
light: B1 light
notes: as for B1
B32: GpH7-B3 variant S337_02A/GpL16-k0 (antibody, human IgG1, kappa)
heavy: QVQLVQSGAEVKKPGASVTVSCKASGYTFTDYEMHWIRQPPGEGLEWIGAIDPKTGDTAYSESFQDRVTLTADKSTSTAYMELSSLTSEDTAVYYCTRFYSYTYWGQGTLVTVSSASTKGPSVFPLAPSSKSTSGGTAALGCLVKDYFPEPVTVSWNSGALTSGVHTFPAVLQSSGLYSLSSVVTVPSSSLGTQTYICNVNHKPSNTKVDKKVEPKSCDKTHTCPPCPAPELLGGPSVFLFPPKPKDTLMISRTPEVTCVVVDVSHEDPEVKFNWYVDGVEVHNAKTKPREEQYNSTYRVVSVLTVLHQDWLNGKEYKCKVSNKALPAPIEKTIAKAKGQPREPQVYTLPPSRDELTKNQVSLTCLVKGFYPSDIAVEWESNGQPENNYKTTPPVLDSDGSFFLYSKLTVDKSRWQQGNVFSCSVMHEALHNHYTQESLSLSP
light: B1 light
notes: homodimerized antibody, mutation in both H chains; also called Ho Ab
B33: GpH7-B3 variant P331_10E/GpL16-k0 (antibody, human IgG1, kappa)
heavy: not shown
light: B1 light
notes: as for B32
B34: GpH7-B3 variant P331_07I/GpL16-k0 (antibody, human IgG1, kappa)
heavy: not shown
light: B1 light
notes: as for B32
B35: GpH7-B3 variant P271_10E/GpL16-k0 (antibody, human IgG1, kappa)
heavy: not shown
light: B1 light
notes: as for B32
B36: GpH7-B3 variant P238_20W/GpL16-k0 (antibody, human IgG1, kappa)
heavy: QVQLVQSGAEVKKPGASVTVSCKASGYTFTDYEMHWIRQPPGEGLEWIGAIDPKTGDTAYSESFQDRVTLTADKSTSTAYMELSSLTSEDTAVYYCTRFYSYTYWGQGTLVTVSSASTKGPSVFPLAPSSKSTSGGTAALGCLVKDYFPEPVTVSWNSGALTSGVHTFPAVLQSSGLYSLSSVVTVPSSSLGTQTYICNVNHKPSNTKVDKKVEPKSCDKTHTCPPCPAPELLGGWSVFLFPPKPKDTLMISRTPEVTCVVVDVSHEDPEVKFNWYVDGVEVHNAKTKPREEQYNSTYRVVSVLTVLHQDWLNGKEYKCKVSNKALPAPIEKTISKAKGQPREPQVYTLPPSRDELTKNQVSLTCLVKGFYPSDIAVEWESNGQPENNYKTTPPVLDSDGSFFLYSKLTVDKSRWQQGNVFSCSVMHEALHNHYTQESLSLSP
light: B1 light
notes: as for B32
B37: GpH7-B3 variant P331_03V/GpL16-k0 (antibody, human IgG1, kappa)
heavy: not shown
light: B1 light
notes: as for B32
B38: GpH7-B3 variant P271_09D/GpL16-k0 (antibody, human IgG1, kappa)
heavy: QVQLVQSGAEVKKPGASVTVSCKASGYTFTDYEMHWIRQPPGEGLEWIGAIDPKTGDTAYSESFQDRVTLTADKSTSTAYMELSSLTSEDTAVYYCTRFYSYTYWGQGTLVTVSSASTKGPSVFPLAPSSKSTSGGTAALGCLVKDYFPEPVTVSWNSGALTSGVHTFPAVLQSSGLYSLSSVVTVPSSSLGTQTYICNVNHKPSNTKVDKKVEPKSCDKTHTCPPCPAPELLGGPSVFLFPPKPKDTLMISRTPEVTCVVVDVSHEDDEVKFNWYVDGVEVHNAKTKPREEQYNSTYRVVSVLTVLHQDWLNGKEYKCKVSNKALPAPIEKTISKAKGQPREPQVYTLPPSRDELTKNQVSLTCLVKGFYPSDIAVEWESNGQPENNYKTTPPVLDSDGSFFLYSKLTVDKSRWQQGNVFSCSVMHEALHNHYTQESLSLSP
light: B1 light
notes: as for B32
B39: GpH7-B3 variant Q295_06M/GpL16-k0 (antibody, human IgG1, kappa)
heavy: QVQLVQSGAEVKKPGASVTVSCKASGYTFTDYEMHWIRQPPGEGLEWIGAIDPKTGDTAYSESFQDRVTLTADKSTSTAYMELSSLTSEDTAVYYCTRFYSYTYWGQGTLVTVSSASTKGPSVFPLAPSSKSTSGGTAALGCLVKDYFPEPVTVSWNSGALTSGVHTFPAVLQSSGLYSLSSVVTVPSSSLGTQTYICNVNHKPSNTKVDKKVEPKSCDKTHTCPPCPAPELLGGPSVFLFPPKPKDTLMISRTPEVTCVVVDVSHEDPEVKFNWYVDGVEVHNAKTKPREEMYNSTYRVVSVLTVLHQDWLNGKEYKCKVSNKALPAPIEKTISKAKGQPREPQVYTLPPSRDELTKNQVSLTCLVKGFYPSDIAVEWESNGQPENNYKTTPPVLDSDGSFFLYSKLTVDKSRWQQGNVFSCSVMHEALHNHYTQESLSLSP
light: B1 light
notes: as for B32
B40: GpH7-B3 variant P238_19Q/GpL16-k0 (antibody, human IgG1, kappa)
heavy: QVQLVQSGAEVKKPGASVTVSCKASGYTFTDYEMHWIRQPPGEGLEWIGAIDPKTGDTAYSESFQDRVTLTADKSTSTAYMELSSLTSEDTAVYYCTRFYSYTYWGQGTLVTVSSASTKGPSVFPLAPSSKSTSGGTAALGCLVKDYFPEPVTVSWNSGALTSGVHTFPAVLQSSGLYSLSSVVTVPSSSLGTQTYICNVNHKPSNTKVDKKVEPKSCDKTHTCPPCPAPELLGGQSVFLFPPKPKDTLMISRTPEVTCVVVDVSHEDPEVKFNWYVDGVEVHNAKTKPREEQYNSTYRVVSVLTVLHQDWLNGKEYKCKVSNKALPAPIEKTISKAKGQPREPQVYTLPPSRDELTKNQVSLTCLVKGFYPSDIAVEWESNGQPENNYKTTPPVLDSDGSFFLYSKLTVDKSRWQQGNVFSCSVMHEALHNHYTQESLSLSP
light: B1 light
notes: as for B32
B41: GpH7-B3 variant P238_15Y/GpL16-k0 (antibody, human IgG1, kappa)
heavy: not shown
light: B1 light
notes: as for B32
B42: GpH7-B3 variant P331_18N/GpL16-k0 (antibody, human IgG1, kappa)
heavy: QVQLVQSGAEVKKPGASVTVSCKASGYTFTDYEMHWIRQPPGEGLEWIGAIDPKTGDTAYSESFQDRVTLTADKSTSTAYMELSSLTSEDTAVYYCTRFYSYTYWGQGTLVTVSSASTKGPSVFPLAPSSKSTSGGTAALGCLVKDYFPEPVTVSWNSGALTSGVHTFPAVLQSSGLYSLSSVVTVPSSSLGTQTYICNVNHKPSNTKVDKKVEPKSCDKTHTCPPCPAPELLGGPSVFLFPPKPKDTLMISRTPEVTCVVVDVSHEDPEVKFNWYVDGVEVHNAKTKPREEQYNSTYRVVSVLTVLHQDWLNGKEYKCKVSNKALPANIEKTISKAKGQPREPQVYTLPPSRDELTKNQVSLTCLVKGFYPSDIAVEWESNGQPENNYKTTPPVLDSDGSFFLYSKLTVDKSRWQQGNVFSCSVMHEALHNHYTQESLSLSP
light: B1 light
notes: as for B32
B43: GpH7-B3 variant P238_16H/GpL16-k0 (antibody, human IgG1, kappa)
heavy: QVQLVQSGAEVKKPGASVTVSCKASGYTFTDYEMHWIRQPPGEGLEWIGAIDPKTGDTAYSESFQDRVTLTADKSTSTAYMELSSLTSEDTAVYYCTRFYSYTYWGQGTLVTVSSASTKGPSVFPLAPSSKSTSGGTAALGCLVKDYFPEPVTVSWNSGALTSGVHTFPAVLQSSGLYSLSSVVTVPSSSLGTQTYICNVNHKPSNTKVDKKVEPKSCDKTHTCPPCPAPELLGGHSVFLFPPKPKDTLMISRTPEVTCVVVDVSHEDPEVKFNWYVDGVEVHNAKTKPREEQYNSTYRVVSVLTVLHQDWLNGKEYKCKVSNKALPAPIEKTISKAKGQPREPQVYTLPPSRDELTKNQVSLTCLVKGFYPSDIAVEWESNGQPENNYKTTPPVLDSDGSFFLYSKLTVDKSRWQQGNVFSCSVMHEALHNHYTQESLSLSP
light: B1 light
notes: as for B32
B44: GpH7-B3 variant P331_13S/GpL16-k0 (antibody, human IgG1, kappa)
heavy: not shown
light: B1 light
notes: as for B32
B45: GpH7-B3 variant P238_10E/GpL16-k0 (antibody, human IgG1, kappa)
heavy: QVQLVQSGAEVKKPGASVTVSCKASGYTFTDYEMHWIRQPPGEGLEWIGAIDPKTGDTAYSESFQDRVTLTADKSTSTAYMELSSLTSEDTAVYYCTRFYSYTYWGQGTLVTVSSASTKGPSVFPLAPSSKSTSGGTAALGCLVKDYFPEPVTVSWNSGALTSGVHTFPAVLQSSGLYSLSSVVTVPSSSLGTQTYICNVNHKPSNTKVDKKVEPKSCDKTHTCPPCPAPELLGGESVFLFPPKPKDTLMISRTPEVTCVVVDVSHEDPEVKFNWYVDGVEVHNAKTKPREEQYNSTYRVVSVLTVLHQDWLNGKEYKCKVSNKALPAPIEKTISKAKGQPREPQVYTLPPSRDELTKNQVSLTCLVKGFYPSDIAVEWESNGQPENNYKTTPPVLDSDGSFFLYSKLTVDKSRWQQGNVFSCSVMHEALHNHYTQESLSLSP
light: B1 light
notes: as for B32
B46: GpH7-B3 variant P331_14T/GpL16-k0 (antibody, human IgG1, kappa)
heavy: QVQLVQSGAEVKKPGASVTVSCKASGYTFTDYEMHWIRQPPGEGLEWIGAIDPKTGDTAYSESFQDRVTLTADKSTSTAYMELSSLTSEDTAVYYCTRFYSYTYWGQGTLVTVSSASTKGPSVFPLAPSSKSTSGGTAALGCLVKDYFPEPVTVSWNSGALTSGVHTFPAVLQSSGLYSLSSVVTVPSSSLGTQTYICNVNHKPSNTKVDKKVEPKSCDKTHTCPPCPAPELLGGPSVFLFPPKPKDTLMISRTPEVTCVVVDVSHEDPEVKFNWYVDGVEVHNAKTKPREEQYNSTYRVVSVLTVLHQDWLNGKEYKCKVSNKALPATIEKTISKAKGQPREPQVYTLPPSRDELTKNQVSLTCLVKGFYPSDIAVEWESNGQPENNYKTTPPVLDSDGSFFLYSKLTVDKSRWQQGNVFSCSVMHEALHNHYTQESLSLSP
light: B1 light
notes: as for B32
B47: GpH7-B3 variant P331_06M/GpL16-k0 (antibody, human IgG1, kappa)
heavy: not shown
light: B1 light
notes: as for B32
B48: GpH7-B3 variant P331_09D/GpL16-k0 (antibody, human IgG1, kappa)
heavy: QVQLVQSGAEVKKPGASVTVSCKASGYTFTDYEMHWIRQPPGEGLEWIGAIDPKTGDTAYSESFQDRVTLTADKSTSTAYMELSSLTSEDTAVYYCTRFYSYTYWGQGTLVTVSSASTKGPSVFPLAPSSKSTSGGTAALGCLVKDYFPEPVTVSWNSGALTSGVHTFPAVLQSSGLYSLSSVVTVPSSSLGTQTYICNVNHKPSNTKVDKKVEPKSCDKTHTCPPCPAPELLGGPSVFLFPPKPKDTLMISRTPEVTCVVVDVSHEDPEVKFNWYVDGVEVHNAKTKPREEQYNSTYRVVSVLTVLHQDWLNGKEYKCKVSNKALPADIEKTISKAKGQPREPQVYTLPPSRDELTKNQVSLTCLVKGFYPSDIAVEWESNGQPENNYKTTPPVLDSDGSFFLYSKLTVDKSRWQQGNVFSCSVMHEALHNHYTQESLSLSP
light: B1 light
notes: as for B32
B49: GpH7-B3 variant P331_08L/GpL16-k0 (antibody, human IgG1, kappa)
heavy: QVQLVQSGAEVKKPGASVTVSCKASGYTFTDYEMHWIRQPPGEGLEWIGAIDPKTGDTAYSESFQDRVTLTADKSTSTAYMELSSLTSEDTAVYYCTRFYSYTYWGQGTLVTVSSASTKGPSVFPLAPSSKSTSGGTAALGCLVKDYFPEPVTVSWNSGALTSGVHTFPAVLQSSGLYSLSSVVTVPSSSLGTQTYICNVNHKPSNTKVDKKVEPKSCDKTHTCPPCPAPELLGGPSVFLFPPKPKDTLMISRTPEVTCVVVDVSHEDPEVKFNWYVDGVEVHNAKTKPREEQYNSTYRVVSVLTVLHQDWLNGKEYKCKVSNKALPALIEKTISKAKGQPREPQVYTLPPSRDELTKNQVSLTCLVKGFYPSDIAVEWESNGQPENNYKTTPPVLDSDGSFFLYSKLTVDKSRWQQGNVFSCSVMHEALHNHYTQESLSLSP
light: B1 light
notes: as for B32

Among the data in patent US20180155451A1 (published 2018) are He/Con_2aH and Ho/Con_2aR values, retold here.

In one assay the target is FcγRIIa H (human FcγRIIa, allotype with His at position 131), extracellular domain with C-terminal His tag (human, UniProt P12318 34-217). Kind of assay: SPR (Biacore), antibody captured on antigen peptide chip, FcγR as analyte; relative to HeCon Ab GpH7-A5/GpH7-B3/GpL16-k0 = 100. (In general: Surface plasmon resonance follows binding to a sensor surface in real time, without labels.)
B1 yielded a He/Con_2aH of 106 control = 100.

B2 registered a He/Con_2aH of 101 control = 100.

With B3, the He/Con_2aH came to 101 control = 100.

For B4, the He/Con_2aH was determined as 102 control = 100.

B5: the He/Con_2aH was found to be 105 control = 100.

As to B6, the He/Con_2aH came to 118 control = 100.

B7 registered a He/Con_2aH of 120 control = 100.

In turn, B8 came in with a He/Con_2aH of 100 control = 100.

As to B9, the He/Con_2aH is 106 control = 100.

B10: the He/Con_2aH was 103 control = 100.

Take B11: the He/Con_2aH stood at 102 control = 100.

B12: the He/Con_2aH came to 102 control = 100.

Molecule B13 had a He/Con_2aH of 101 control = 100.

In the case of B14, the He/Con_2aH was 103 control = 100.

In turn, B15 returned a He/Con_2aH of 112 control = 100.

Regarding B16, the He/Con_2aH came out at 136 control = 100.

Take B17: the He/Con_2aH was determined as 104 control = 100.

Turning to B18, the He/Con_2aH was found to be 105 control = 100.

For B19, the He/Con_2aH was determined as 106 control = 100.

In turn, B20 showed a He/Con_2aH of 102 control = 100.

Molecule B21 gave a He/Con_2aH of 105 control = 100.

With B22, the He/Con_2aH stood at 114 control = 100.

With B23, the He/Con_2aH turned out to be 100 control = 100.

The molecule B24 displayed a He/Con_2aH of 100 control = 100.

On to B25, for which the He/Con_2aH is 105 control = 100.

Molecule B26 registered a He/Con_2aH of 102 control = 100.

For the molecule B27, the He/Con_2aH was found to be 102 control = 100.

The molecule B28 came in with a He/Con_2aH of 120 control = 100.

B29 had a He/Con_2aH of 102 control = 100.

In turn, B30 came in with a He/Con_2aH of 101 control = 100.

On to B31, for which the He/Con_2aH was 103 control = 100.

The target in another assay is T1, FcγRIIa R (human FcγRIIa, allotype R, …). Kind of assay: SPR (Biacore), relative binding vs GpH7-B3/GpL16-k0. Here is the method: Analysis of interaction between objective antibody and the FcγR was carried out using Biacore T100 (GE Healthcare). HBS-EP+ (GE Healthcare) was used as the running buffer, and the measurement temperature was set to 25° C. Chips produced by immobilizing the antigen peptide by the amine coupling method to a Series S Sencor Chip CM5 (GE Healthcare), or alternatively, chips produced by allowing preliminarily biotinylated antigen peptides to interact with and immobilize onto a Series S Sensor Chip SA (certified) (GE Healthcare) were used. Antibodies of interest were captured onto an antigen peptide-immobilized chip, and allowed to interact to each FcγR diluted with running buffer. To regenerate and repeatedly use the chip, the antibodies captured on the chip were washed off by reacting 10 mM glycine-HCl, pH 1.5.
The FcγR-binding activity of each antibody was assessed primarily using as an indicator the FcγR-binding activity and dissociation constant for FcγR.
Regarding B32, the Ho/Con_2aR is 102 relative, control = 100.

As to B33, the Ho/Con_2aR was 94.6 relative, control = 100.

For B34, the Ho/Con_2aR was 67 relative, control = 100.

Take B35: the Ho/Con_2aR was 88.8 relative, control = 100.

As for B36, the Ho/Con_2aR is 25.7 relative, control = 100.

For B37, the Ho/Con_2aR was 89.1 relative, control = 100.

Take B38: the Ho/Con_2aR was 92.4 relative, control = 100.

For the molecule B39, the Ho/Con_2aR was 93.9 relative, control = 100.

Consider B40, for which the Ho/Con_2aR was 19.4 relative, control = 100.

On to B41, for which the Ho/Con_2aR is 95.9 relative, control = 100.

Consider B42, for which the Ho/Con_2aR was 76.9 relative, control = 100.

As to B43, the Ho/Con_2aR was 25.5 relative, control = 100.

On to B44, for which the Ho/Con_2aR was 87.8 relative, control = 100.

Take B45: the Ho/Con_2aR is 21.4 relative, control = 100.

With B46, the Ho/Con_2aR is 80.8 relative, control = 100.

B47: the Ho/Con_2aR is 79.8 relative, control = 100.

For B48, the Ho/Con_2aR is 88.8 relative, control = 100.

For B49, the Ho/Con_2aR was 74.4 relative, control = 100.
